B1: LTβR:IgG, dimeric (Fc fusion, not shown: a dimerising Fc or GST; small tags and cut ends)
chain: QAVPPYASENQTCRDQEKEYYEPQHRICCSRCPPGTYVSAKCSRIRDTVCATCAENSYNEHWNYLTICQLCRPCDPVMGLEEIAPCTSKRKTQCRCQPGMFCAAWALECTHCELLSDCPPGTEAELKDEVGKGNNHCVPCKAGHFQNTSSPSARCQPHTRCENQGLVEAAPGTAQSDTTCKNPLEPLPPEMSGTMLM
modifications: Dimeric through its Fc, which is left out. A biotinylated form (bLTβRIgG) was also used in FACS.
notes: Conventional dimeric receptor-Fc fusion used as the comparator; also called bLTβRIgG (biotinylated)
B2: Hu5C8, conventional human IgG1 anti-CD40L antibody (antibody)
heavy: not shown
light: DIVLTQSPATLSVSPGERATISCRASQRVSSSTYSYMHWYQQKPGQPPKLLIKYASNLESGVPARFSGSGSGTDFTLTISSVEPEDFATYYCQHSWEIPPTFGGGTKLEIKRTVAAPSVFIFPPSDEQLKSGTASVVCLLNNFYPREAKVQWKVDNALQSGNSQESVTEQDSKDSTYSLSSTLTLSKADYEKHKVYACEVTHQGLSSPVTKSFNRGEC
modifications: N-glycan at EU N297; biotinylated (sites not given) in the CD40L ELISA
notes: Human IgG1, fully glycosylated, bivalent; Biotinylated in the CD40L ELISA; also called WT 5c8 hIgG1; WT 5C8 hIgG1
B3: 1×G4S-linked hemiglycosylated 5C8 scFc IgG1 antibody (pEAG2066) (antibody)
heavy: not shown
light: B2 light
notes: plasmid not given; also called hemi-glycosylated 1×-G4S linked scFc; 1×G4S linked scFc
B4: 3×G4S-linked hemiglycosylated 5C8 scFc IgG1 antibody (pASK043) (antibody)
heavy: not shown
light: B2 light
notes: One heavy scFc chain and one light chain (monovalent); also called monovalent 3×G4S-linked hemiglycosylated scFc; hemi-glycosylated 3×-G4S linked scFc
B5: 3×G4S-linked fully glycosylated 5C8 scFc IgG1 antibody (ASK048) (antibody)
heavy: not shown
light: B2 light
notes: also called fully glycosylated 3×G4S linked scFc

Tests used:
[1] = biological target: T1, human LTα1β2 on phorbol myristate acetate activated II-23 cells (human, UniProt P01374 35-205; Q06643 1-244); assay: FACS direct binding on PMA-activated II-23 cells, mean fluorescence (MFI)
T1 construct: whole, on cells
T1 sequence (looked up) 1: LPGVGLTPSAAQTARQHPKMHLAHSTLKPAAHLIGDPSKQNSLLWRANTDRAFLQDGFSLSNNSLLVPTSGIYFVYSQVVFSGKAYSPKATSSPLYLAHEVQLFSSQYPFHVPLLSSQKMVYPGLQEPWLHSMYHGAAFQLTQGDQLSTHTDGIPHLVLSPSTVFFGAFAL
T1 sequence (looked up) 2: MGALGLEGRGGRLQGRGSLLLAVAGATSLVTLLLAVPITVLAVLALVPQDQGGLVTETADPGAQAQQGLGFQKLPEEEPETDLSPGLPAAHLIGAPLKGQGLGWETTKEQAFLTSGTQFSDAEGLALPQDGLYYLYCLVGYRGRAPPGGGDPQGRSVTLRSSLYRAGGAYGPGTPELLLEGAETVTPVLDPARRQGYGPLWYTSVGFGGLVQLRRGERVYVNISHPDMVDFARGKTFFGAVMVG
Procedure: The binding affinity of the monomeric LTβR:scFc was also evaluated by FACS analysis (FIG. 59B). FACS was done on II-23 cells according to the methods of Eldredge et al. (Eldredge, Berkowitz et al. 2006). FACS binding assays using flow cytometry were done according to the method previously described (Force, Walter et al. 1995). Briefly, in direct binding assays human LTα1β2 was detected on phorbol myristate acetate activated II-23 cells (American Type Culture Collection (ATCC) Manassas, Va.) in FACS buffer with varied concentrations of either the LTβRIgG or biotinylated LTβRIgG (bLTβRIgG). Cells were incubated on ice for 1-2 h then washed with PBS and centrifuged. The appropriate steptavidin phycoerythrin or anti-hFc phycoerythrin labeled secondary (Molecular Probes, Eugene, Oreg.) in FACS buffer was added and incubated with the cells for an additional 1 h and washed again. The fluorescent staining of the cellular bound LTβRIgG on the II-23 cells was quantified by determining the mean channel fluorescence by FACS. Both the FACS and ELISA show the LTβRscFc has a reduced binding affinity compared with LTβRIgG.

[2] = biological target: T2, LTα1β2 (coated on ELISA plates) (Homo sapiens (Human), UniProt P01374 35-205; Q06643 49-244, Heterotrimer of one alpha and two beta chains, as the name says.); assay: ELISA on plates coated with 5 ug/ml LTα1β2, detected with anti-human HRP secondary antibody. The value is parameter C (midpoint) of the four-parameter fit y = ((A-D)/(1+(x/C)^B))+D printed under the plot. The unit is taken from the x axis.
T2 construct: Heterotrimer of one alpha and two beta chains by its name; also called LTa1β2; copies: 1 + 1
T2 sequence (alpha): T1 sequence (looked up) 1
T2 sequence (beta): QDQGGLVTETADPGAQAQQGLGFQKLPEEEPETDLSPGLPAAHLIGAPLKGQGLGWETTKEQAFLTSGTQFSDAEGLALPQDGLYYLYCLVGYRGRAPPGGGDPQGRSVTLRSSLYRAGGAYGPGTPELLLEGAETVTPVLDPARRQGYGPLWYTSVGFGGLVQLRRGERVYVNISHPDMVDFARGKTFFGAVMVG
Procedure: FIG. 59A depicts the results of an ELISA evaluating the binding affinity of the monomeric LTβR:scFc to LTα1β2. ELISA plates were coated overnight at 4° C. with 5 ug/ml LTα1β2 in PBS. Plates were then blocked with 1% Casein in 10 mM PBS, pH 7.0, then washed with 10 mM PBS, pH 7.0, 0.1% Tween 20 (wash buffer) three times. LTβR:IgG or LTBβ:scFc serially diluted into 10 mM PBS, 362 mM NaCl, 0.055 Tween-20, 0.1% Casein, 5% FBS pH 7.0 (assay diluent) and incubated for 1 h, then washed with wash buffer. To each well was added Donkey anti-human heavy and light specific HRP (Jackson Labs) conjugated secondary antibody diluted 1:5000 in assay diluents for 60 min then washed with PBS. The HRP was developed using tetramethybenzidine and hydrogen peroxide in 100 mM NaAcetate pH 4.0 after several minutes, the assay was stopped by the addition of 100 uL of 1N sulfuric acid and sample absorbance read at 450 nm.

[3] = biological target: T3, cynomolgus FcγR IIa (CD32a) (cynomolgus, UniProt A0A140HDN0 28-215); assay: Alphascreen assay, cynomolgus FcγR CD32a (R)
T3 sequence: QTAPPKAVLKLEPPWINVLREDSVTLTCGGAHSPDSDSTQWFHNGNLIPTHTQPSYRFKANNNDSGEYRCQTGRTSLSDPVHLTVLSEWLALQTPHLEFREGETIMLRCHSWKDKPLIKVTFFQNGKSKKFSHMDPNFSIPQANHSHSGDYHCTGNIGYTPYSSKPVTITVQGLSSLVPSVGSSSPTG

human FcγR IIa (CD32a) = biological target: T4, human FcγR IIa (CD32a) (human, UniProt P12318 34-217, limits assumed); assay: Alphascreen assay, human FcγR CD32a (R)
T4 sequence (looked up): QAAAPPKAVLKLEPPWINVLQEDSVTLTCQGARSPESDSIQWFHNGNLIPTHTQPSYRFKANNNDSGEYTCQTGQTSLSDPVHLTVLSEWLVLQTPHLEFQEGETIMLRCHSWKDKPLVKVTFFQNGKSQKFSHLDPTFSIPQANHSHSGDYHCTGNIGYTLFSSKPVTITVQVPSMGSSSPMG

[4] = biological target: T5, human FcRIII-GST (CD16a, V158) (human, UniProt P08637 17-208, limits assumed); assay: Alphascreen competition assay, huCD16a V158-GST on anti-GST acceptor beads; competitor: biotinylated wild-type IgG1 on streptavidin donor beads; set-up: IC50 (read off the curve): unit not given here
T5 construct: also called human FcγRIII; FcγRIII (CD16a); not shown: GST tag
Procedure: (§1) The ability of scFc antibodies comprising GGGGS (“1×-G4S”) or (GGGS)3 (“3×-G4S”) linkers to engage Fcγ receptors was also evaluated in an Amplified Luminescent Proximity Homogeneous Assay (Alphascreen®; Perkin Elmer). Laser excitation (680 nm) of a donor bead generates singlet oxygen which, if in close proximity to an acceptor bead, initiates a cascase of events ultimately leading to fluorescence emission at 520-620 nm. Donor and acceptor beads decorated with ligand and receptor proteins, respectively, are brought into desired proximity only when the receptor and ligand become functionally engaged.
(§2) The Alphascreen® assay was performed in a competitive format in which serial dilutions of test antibodies (WT IgG1 or scFc) were incubated with human FcRIII-GST (CD16a, V158) and anti-GST acceptor beads overnight at 4° C. in a 96-well white plate. Streptavidin donor beads and biotinylated wild-type IgG1 were also incubated overnight at 4° C. in a separate tube and then added to the assay plate the next day. After a two-hour incubation at room temperature with gentle shaking the plates were read in an Envision® plate reader (Perkin Elmer).

[5] = biological target: T6, cynomolgus FcγR IIb (CD32b) (cynomolgus, UniProt A0A140HDP4 43-217); assay: Alphascreen assay, cynomolgus FcγR CD32b
T6 sequence: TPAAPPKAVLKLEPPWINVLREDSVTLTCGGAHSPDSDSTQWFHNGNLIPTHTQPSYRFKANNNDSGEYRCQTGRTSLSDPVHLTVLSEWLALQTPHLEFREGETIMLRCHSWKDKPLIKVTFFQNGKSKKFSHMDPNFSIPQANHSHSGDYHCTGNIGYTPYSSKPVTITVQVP

[6] = biological target: cynomolgus FcγR III (CD16a) (cynomolgus, UniProt Q8SPW2 17-208, limits assumed); assay: Alphascreen assay, cynomolgus FcγR CD16a
human FcγR IIb (CD32b) = biological target: T7, human FcγR IIb (CD32b) (human, UniProt P31994 43-217, limits assumed); assay: Alphascreen assay, human FcγR CD32b
T7 sequence (looked up): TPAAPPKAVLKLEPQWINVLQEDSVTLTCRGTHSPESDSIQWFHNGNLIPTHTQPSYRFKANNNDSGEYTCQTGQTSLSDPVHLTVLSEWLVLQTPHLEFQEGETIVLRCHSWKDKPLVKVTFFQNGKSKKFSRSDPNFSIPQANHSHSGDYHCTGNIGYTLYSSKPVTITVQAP

[7] = biological target: T5, human FcRIII-GST (CD16a, V158); assay: Alphascreen assay, human FcγR CD16a
Procedure: as §1, §2

[8] = biological target: T5, human FcRIII-GST (CD16a, V158); assay: Alphascreen, competitive format, competitor biotinylated wild-type IgG1
Procedure: as §1, §2

[9] = biological target: T5, human FcRIII-GST (CD16a, V158); assay: Alphascreen
Procedure: as §1, §2

Binder | EC50 (read off the curve) [1] | EC50 [2] | EC50 [3] | EC50 (human FcγR IIa (CD32a)) | EC50 [4] | EC50 [5] | EC50 [6] | EC50 (human FcγR IIb (CD32b)) | EC50 [7] | fold lower affinity against fully glycosylated WT human IgG1 [8] | IC50 (read off the curve) [4] | fold weaker binding against WT IgG1 [9]
B1 | ~0.1 µg/mL | 0.028 µg/mL |  |  |  |  |  |  |  |  |  | 
B2 |  |  | 359 nM | 511 nM | 12 nM | 52 nM | 37 nM | 292 nM | 22 nM |  |  | 
B3 |  |  |  |  | 689 nM |  |  |  |  | ~57 fold | ~70 | ~60 fold
B4 |  |  | 221 nM | 949 nM | 77 nM | 72 nM | 89 nM | 552 nM | 59 nM | ~4 fold |  | 
B5 |  |  | 206 nM | 304 nM |  | 17 nM | 32 nM | 183 nM | 18 nM |  |  | 
